# Experimental data: patent US9307782B2, “Mannanase produced from Cellulosimicrobium sp. strain HY-13” (Korea Research Institute of Bioscience and Biotechnology, priority 2011, dated 2016)
# Where two headings read alike, the source gives them in different places. Marks after values point to notes of the source that are not given here.
# Legend:
# [1] = Specific activity of mannanase (substrate specificity); format: biochemical; details: substrate Birchwood xylan
# Description: The activity of β-1,4-mannanase was investigated by measuring the reduced amount of glucose isolated from locust bean gum using 3,5-dinitrosalicylic acid (DNS). At this time, D-mannose was used as a standard material. […] The activity of the recombinated mannanase (1 IU) to the mannan substrate was defined as the amount of the protein necessary for the secretion of 1 μmol reducing sugar under the standard analysis condition. […] The enzyme activity of the recombinated mannanase to the chromogenic substrate was measured under the same conditions as set for the analysis of β-1,4-mannanase activity. The activity of the recombinated mannanase (1 IU) to the PNP-sugar derivative was defined as the amount of the protein necessary for the production of 1 μmol PNP under the standard analysis condition.
# [2] = Analysis of degradation product (HPLC, LC-MS/MS); format: biochemical; details: substrate Ivory nut mannan; LC area %
# Protocol: […] HPLC (high performance liquid chromatography) was performed by using Finnigan Surveyor™ Modular HPLC systems (Thermo Electron Co.) equipped with Asahipak NH2P-50 2D column (5 μm, 2.0×150 mm, Shodex) ran by Xcalibur software (version 1.3 SP2, Thermo Electron Co.). Elution buffer A (0.05% pomalus acid/sterilized water) and elution buffer B (acetonitrile and methanol (7:3) containing 0.05% pomalus acid) were used as moving phases. LC-MS/MS (liquid chromatography/tandem mass spectrometry) was performed by using Finnigan LCQ Advantage MAX ion trap mass spectrometer (Thermo Electron Co.).
# [3] = Binding of mannanase to insoluble polymer; details: enzyme 5.0 IU/Ml, on ice two hours, pH 6.0
# Protocol: The mannanase of the present invention contains two family 10 CBMs at C-terminal, which plays an important role in enzyme-substrate interaction. As the mannanase was expected to bind to various carbohydrate polymers, hydrophobic materials having microstructures including polysaccharide, poly(3HB) granules, and lignin were used as substrates to investigate enzyme-substrate binding activity of the mannanase.
# Before analyzing the binding activity, insoluble substrates were washed with 50 mM sodium phosphate buffer (pH 6.0) 5 times, followed by measuring the binding capacity of the enzyme to the hydrophobic materials. Particularly, the enzyme diluted at the concentration of 5.0 IU/Ml was put on ice for two hours with the equal volume of a substrate polymer. The mixture was stirred every 5 minute. The mixture was centrifuged at 12,000×g to obtain supernatant. Then, the activity of β-1,4-mannanase thereof was measured.
# [4] = format: physicochemical
# Protocol: To determine the optimum reaction temperature of the mannanase, mannanase activity was measured at different temperatures of 37, 40, 45, 50, 55, 60, 65, and 70° C. To measure thermo-stability, the mannanase was heat-treated at the said temperatures for 15, 30, and 60 minutes and then the remained activity was measured. To determine the optimum reaction pH, the mannanase was treated respectively with 50 mM of sodium citrate buffer (pH 4.0˜5.5), phosphate buffer (pH 5.5˜7.5), Tris-HCl buffer (pH 7.5˜9.0), and glycine-NaOH buffer (pH 9.0˜10.0) in pH range of 4.0˜10.0 at 55° C. for 15 minutes, followed by measurement of enzyme reaction.
# [5] = Specific activity of mannanase (substrate specificity); format: biochemical
# Protocol: (§1) The activity of β-1,4-mannanase was investigated by measuring the reduced amount of glucose isolated from locust bean gum using 3,5-dinitrosalicylic acid (DNS). At this time, D-mannose was used as a standard material. 0.5 Ml of a standard mixture composed of 0.5% locust bean gum was mixed with 0.05 Ml of an enzyme aqueous solution, followed by inducing biodegradation reaction in 50 mM sodium phosphate buffer (pH 6.0) at 50° C. for 15 minutes. The activity of the recombinated mannanase (1 IU) to the mannan substrate was defined as the amount of the protein necessary for the secretion of 1 μmol reducing sugar under the standard analysis condition. Chromogenic PNP-sugar derivative was used to measure another degrading activity of the said recombinated enzyme. The enzyme activity of the recombinated mannanase to the chromogenic substrate was measured under the same conditions as set for the analysis of β-1,4-mannanase activity. The activity of the recombinated mannanase (1 IU) to the PNP-sugar derivative was defined as the amount of the protein necessary for the production of 1 μmol PNP under the standard analysis condition.
# [6] = Specific activity of mannanase (DNS reducing sugar assay); format: biochemical; details: for Specific activity: pH 6.0, 50° C., 15 minutes
# Protocol: To compare the mannanase activity to different matrixes, locust bean gum, ivory nut mannan and guar gum were used as matrixes and the activity of the purified mannanase to those matrixes were investigated.
# as §1
# [7] = toward locust bean gum; comparison enzymes of other strains; cited from earlier work
# [8] = Analysis of degradation product (HPLC, LC-MS/MS); format: biochemical
# Protocol: Mannooligomer (M2˜M5, 1 mg/100 μl each) and locust bean gum (1.4 mg/100 μl) were reacted in 50 mM sodium phosphate buffer (pH 6.0) containing 1 μg of the recombinant mannanase at 30° C. for 12 hours, followed by investigation of the hydrolysate. HPLC (high performance liquid chromatography) was performed by using Finnigan Surveyor™ Modular HPLC systems (Thermo Electron Co.) equipped with Asahipak NH2P-50 2D column (5 μm, 2.0×150 mm, Shodex) ran by Xcalibur software (version 1.3 SP2, Thermo Electron Co.). Elution buffer A (0.05% pomalus acid/sterilized water) and elution buffer B (acetonitrile and methanol (7:3) containing 0.05% pomalus acid) were used as moving phases. LC-MS/MS (liquid chromatography/tandem mass spectrometry) was performed by using Finnigan LCQ Advantage MAX ion trap mass spectrometer (Thermo Electron Co.).
# [9] = substrate Locust bean gum, 1 μg recombinant mannanase, pH 6.0, 30° C., 12 hours, LC area %
molecule,measurement,setting,value
"Mannanase: Wild type β-1,4-mannanase of Bacillus subtilis WY34 (protein, cellulosimicrobium, Wild type β-1,4-mannanase of Bacillus subtilis WY34) MRRLFAIVLGAVLALLAVPALAQGASVASDGFSVQDGRIYDANGNRFVPVGVNHAHAWYPSQTQSFADIRAAGANTVRVVLSGGRYGTSSAADVSAVVERCKQNQLVCILENHDTTGYGEDGSARSLASAAQYWTSIASVLRGQERYVMINIGNEPFGNSGFQSWTTDTIAAIRTLRAAGLDHTLVVDAPNWGQDWSFTMRDNAPTVAAADGNVVFSVHMYGVFDTGAEVRAYLDSFTSRGLPIMVGEFGDNHSDGNPDEATIMSYTRSQGIGMLGWSWSGNGGGVEYLDMVNGFSASSLTPWGQRFVHGADGLRARNAPAASVYGGDGGDGDGGAGTAPNGYPYCASASSDPDGDGWGWESSASCVVRGSSADTGSGGGSGSGSTAPNGYPYCASASSDPDGDGWGWESSASCVVRGSSADR",degradation of carbohydrate,[1],not degraded
same,Composition (%) of products formed by hydrolysis reaction: M4,[2],25.2%
same,binding to insoluble polymer,[3]; Avicel,strongly conjugated
same,binding to insoluble polymer,[3]; chitin,strongly conjugated
same,binding to insoluble polymer,[3]; chitosan,strongly conjugated
same,binding to insoluble polymer,[3]; curdlan,not conjugated
same,binding to insoluble polymer,[3]; insoluble ivory nut mannan,strongly conjugated
same,binding to insoluble polymer,[3]; insoluble oat spelt xylan,not conjugated
same,binding to insoluble polymer,[3]; lignin,not conjugated
same,binding to insoluble polymer,[3]; poly(3HB) granules,not conjugated
same,Half life of the enzyme,[4],15 min
same,Thermolability,[4]; exposed on the temperature of 55° C.,rapidly increased
same,degradation of carbohydrate,[5]; substrate carboxymethylcellulose,not degraded
same,degradation of carbohydrate,[5]; substrate pectin,not degraded
same,degradation of carbohydrate,[5]; substrate soluble starch,not degraded
same,specific activity to ivory nut mannan relative to guar gum,[6]; ratio ivory nut mannan / guar gum,15.2 fold
same,specific activity to ivory nut mannan relative to locust bean gum,[6]; ratio ivory nut mannan / locust bean gum,1.7 fold
same,Specific activity,[6]; toward guar gum,967 IU/mg
same,Specific activity,[6]; toward insoluble ivory nut mannan,"14,711 IU/mg"
same,Specific activity,[6]; toward locust bean gum,"8,498 IU/mg"
same,Specific activity,[7],"8,302^d IU/mg"
same,Composition (%) of products formed by hydrolysis reaction: M1,[8]; [9],1.1%
same,Composition (%) of products formed by hydrolysis reaction: M2,[8]; [9],6.4%
same,Composition (%) of products formed by hydrolysis reaction: M3,[8]; [9],1.5%
same,Composition (%) of products formed by hydrolysis reaction: M4,[8]; [9],7.4%
same,Composition (%) of products formed by hydrolysis reaction: M5,[8]; [9],44.2%
same,degradation of substrate,[8]; substrate M2 (printed N2),not degraded
same,hydrolysis products: mannooligomer (at least M6),"[8]; substrate locust bean gum, sum of M6 and larger",39.4%
